Source: patent US20050118170A1

Legend:
[1] = target: human collagen type I (human) (UniProt P02452); assay: adherence of cells to collagen-coated plates, 30 minutes at 37° C.; not inhibited by anti-β1 integrin blocking antibody
[2] = target: DDR1b (discoidin domain receptor 1, isoform b), full-length human, overexpressed in THP-1 cells (human) (UniProt Q08345); assay: cell-based or functional assay
Sequence of DDR1b (discoidin domain receptor 1, isoform b), full-length human, overexpressed in THP-1 cells (human) (Q08345 19-913, form in doubt): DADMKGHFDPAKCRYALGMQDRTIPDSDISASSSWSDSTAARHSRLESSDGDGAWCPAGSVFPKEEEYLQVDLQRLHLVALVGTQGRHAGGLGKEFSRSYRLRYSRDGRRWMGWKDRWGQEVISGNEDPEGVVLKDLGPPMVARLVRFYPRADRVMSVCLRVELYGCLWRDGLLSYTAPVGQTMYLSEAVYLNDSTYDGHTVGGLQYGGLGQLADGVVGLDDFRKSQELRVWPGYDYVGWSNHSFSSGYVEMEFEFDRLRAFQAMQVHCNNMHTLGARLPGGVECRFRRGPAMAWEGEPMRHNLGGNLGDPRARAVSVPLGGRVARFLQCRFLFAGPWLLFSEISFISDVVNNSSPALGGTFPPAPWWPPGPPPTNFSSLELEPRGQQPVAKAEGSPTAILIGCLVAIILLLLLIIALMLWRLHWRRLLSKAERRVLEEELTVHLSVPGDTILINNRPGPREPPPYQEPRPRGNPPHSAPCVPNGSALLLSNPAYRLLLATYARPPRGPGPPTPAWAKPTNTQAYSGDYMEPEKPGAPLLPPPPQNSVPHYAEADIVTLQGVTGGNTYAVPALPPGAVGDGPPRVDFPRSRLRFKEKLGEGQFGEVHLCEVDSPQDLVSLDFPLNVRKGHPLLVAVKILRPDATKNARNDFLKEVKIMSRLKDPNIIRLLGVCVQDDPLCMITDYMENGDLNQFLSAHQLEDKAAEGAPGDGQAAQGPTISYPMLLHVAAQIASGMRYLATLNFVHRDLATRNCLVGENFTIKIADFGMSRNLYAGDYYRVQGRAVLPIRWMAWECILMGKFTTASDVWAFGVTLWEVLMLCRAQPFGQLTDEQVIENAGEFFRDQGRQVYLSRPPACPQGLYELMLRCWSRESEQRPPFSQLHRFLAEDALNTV

Sequence of human collagen type I (human) (P02452 162-1218 limits assumed, chain 1 of 2): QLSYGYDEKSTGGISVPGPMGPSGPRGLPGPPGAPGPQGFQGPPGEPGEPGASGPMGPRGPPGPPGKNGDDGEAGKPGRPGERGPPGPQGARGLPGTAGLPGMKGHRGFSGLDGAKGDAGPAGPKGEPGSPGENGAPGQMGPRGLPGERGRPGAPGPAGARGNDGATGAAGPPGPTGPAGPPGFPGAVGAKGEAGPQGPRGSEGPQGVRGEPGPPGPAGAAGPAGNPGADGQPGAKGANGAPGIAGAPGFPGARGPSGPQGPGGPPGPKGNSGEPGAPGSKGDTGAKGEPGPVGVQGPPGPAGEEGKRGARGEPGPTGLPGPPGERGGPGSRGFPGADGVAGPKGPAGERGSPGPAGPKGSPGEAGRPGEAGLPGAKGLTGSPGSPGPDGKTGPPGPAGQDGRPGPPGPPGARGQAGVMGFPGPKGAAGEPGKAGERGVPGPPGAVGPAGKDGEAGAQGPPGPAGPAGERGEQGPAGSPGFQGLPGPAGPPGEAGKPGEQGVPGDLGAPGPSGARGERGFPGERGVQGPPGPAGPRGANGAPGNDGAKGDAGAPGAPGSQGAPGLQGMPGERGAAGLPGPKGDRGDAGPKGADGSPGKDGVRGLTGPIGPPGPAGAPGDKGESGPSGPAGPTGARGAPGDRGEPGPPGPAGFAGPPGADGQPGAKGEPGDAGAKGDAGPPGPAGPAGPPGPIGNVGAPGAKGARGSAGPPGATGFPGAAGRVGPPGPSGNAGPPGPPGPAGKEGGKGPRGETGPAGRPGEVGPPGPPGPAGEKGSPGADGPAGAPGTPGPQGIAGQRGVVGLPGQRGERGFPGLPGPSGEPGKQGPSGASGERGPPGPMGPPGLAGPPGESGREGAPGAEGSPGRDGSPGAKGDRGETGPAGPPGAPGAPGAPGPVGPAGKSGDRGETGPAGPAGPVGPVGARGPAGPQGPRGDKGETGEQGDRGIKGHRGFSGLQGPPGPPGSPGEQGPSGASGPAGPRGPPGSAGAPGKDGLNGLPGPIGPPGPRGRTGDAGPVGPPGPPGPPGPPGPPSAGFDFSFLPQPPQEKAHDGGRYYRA
Sequence of human collagen type I (human) (P08123 80-1119 limits assumed, chain 2 of 2, further chain): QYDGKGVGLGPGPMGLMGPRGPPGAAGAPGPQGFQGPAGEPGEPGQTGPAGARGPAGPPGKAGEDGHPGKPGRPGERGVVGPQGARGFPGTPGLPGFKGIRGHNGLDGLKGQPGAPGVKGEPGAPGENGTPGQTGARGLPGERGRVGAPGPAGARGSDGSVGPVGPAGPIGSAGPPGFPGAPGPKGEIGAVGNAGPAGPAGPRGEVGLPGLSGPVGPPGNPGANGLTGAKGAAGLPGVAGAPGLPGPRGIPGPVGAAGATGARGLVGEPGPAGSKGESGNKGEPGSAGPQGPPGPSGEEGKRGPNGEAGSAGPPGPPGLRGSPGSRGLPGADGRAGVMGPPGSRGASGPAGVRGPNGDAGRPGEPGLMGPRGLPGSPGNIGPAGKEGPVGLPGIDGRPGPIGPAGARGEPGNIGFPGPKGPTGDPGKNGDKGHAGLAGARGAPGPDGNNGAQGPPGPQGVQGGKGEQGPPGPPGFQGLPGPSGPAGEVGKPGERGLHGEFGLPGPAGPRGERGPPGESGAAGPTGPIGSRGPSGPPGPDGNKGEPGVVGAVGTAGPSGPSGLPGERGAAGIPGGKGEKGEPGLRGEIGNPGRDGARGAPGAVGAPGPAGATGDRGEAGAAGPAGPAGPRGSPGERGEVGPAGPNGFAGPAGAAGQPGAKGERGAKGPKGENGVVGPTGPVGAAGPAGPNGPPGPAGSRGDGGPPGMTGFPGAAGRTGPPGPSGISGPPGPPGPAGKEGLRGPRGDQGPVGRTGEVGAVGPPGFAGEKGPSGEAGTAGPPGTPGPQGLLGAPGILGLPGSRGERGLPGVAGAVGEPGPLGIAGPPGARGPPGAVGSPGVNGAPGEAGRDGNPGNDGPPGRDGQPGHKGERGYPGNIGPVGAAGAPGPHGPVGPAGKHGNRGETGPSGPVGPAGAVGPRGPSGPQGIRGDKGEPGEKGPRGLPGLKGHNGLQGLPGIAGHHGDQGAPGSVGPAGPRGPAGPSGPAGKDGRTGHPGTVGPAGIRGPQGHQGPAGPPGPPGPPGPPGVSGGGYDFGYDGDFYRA
Sequence of DDR1b (discoidin domain receptor 1, isoform b), full-length human, overexpressed in THP-1 cells (Q08345 19-913): as the sequence (Q08345 19-913, form in doubt) above

“DDR1a (discoidin domain receptor 1, isoform a), full-length human, overexpressed in THP-1 cells (from UniProt Q08345 19-913)” showed a percent of total cells adherent (% of total cells) [1] of 62.

Work on “DDR1b (discoidin domain receptor 1, isoform b), full-length human, overexpressed in THP-1 cells (from UniProt Q08345 19-913)” yielded a percent of total cells adherent (% of total cells) [1] of 62.

With “bovine collagen type I (from UniProt P02453 162-1217; P02465 80-1117)” the decrease in cell proliferation of PMA-treated THP-1 cells on collagen-coated plates [2] was 50%.

Work on “bovine collagen type I (from UniProt P02453 162-1217; P02465 80-1117) (ligand)” yielded a CD11c-positive cells at 24 hours on collagen-coated plates [2] of 53%, a CD14-positive cells at 24 hours on collagen-coated plates [2] of 35% and a CD40-positive cells at 24 hours on collagen-coated plates [2] of 19%. It also gave an HLA-DR-positive cells, 12 hours on collagen-coated plates [2] of 10%, an HLA-DR-positive cells, 24 hour incubation on collagen-coated plates [2] of 25% and an HLA-DR-positive cells, 48 hour incubation on collagen-coated plates [2] of 70%. For the same substance, the MCP-1 release into culture supernatant (ELISA) [2] was 7 fold.
